In US20200024360A1 (Janssen / Centocor, published 2020):

T1: Cynomolgous monkey PSMA, full length (Macaca fascicularis, UniProt Q04609 1-750 (human entry))
T1 construct: On transfected HEK293F cells; also called cyno PSMA; EHH56646.1
T1 chain: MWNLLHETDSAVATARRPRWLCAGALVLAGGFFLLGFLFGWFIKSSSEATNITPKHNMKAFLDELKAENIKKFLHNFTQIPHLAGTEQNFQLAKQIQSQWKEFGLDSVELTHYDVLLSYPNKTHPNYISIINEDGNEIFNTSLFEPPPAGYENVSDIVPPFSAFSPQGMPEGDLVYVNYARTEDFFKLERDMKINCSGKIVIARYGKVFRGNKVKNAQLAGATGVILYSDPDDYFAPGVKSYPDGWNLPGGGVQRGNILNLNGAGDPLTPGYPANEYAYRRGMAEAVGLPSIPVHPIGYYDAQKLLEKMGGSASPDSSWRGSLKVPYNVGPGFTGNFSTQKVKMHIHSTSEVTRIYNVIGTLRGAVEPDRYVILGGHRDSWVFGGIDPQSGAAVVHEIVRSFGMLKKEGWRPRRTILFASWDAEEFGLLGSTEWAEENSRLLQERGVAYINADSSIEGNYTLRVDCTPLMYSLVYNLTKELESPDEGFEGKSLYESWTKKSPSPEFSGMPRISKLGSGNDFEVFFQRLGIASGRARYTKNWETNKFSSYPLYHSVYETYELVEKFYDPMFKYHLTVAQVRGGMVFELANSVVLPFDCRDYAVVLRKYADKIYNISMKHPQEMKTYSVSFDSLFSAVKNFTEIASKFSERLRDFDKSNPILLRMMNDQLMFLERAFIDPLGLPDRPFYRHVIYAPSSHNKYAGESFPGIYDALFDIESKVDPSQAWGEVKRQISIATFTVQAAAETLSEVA

T2: chimpanzee PSMA, full length (Pan troglodytes, UniProt Q04609 1-750 (human entry))
T2 construct: On transfected HEK293F cells; also called chimp PSMA; H2Q3K5_PANTR
T2 chain: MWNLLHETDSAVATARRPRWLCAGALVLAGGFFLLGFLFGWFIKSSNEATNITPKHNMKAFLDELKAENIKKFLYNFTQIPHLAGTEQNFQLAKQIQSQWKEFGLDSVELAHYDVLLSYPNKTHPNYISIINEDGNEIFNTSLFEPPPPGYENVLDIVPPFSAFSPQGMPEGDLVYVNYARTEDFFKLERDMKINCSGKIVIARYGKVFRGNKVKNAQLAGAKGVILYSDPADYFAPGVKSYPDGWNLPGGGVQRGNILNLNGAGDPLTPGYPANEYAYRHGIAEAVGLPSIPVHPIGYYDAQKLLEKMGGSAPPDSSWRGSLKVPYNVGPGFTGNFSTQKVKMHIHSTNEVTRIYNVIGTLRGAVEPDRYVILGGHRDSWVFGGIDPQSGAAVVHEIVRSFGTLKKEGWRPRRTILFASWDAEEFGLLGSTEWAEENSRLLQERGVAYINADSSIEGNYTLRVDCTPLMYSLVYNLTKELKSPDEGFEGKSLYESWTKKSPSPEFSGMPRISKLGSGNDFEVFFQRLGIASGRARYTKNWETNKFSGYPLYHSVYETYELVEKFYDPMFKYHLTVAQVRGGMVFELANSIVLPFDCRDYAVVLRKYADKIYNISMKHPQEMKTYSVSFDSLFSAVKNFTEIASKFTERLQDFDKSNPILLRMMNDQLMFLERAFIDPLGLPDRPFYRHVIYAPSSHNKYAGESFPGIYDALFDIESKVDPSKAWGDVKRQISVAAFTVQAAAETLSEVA

B1: PS3B30 (bispecific antibody, human IgG4 S228P, kappa, lambda, F234A L235A)
heavy 1: not shown
light 1: not shown
heavy 2: EVQLVESGGGLVQPGGSLRLSCAASGFTFNTYAMNWVRQAPGKGLEWVARIRSKYNNYATYYAASVKGRFTISRDDSKNSLYLQMNSLKTEDTAVYYCARHGNFGNSYVSWFAYWGQGTLVTVSSASTKGPSVFPLAPCSRSTSESTAALGCLVKDYFPEPVTVSWNSGALTSGVHTFPAVLQSSGLYSLSSVVTVPSSSLGTKTYTCNVDHKPSNTKVDKRVESKYGPPCPPCPAPEAAGGPSVFLFPPKPKDTLMISRTPEVTCVVVDVSQEDPEVQFNWYVDGVEVHNAKTKPREEQFNSTYRVVSVLTVLHQDWLNGKEYKCKVSNKGLPSSIEKTISKAKGQPREPQVYTLPPSQEEMTKNQVSLTCLVKGFYPSDIAVEWESNGQPENNYKTTPPVLDSDGSFLLYSKLTVDKSRWQEGNVFSCSVMHEALHNHYTQKSLSLSLGK
light 2: QTVVTQEPSLTVSPGGTVTLTCRSSTGAVTTSNYANWVQQKPGQAPRGLIGGTNKRAPGTPARFSGSLLGGKAALTLSGVQPEDEAEYYCALWYSNLWVFGGGTKLTVLGQPKAAPSVTLFPPSSEELQANKATLVCLISDFYPGAVTVAWKADSSPVKAGVETTTPSKQSNNKYAASSYLSLTPEQWKSHRSYSCQVTHEGSTVEKTVAPTECS
notes: IgG4 PAA; PSMA arm chains first, then CD3 arm (F405L, R409K); also called PSMB130 x CD3B219
B2: PS3B28 (bispecific antibody, human IgG4 S228P, kappa, lambda, F234A L235A)
heavy 1: not shown
light 1: not shown
heavy 2: B1 heavy 2
light 2: B1 light 2
notes: IgG4 PAA; PSMA arm chains first, then CD3 arm (F405L, R409K); also called PSMB128 x CD3B219
B3: PS3B20 (bispecific antibody, human IgG4 S228P, kappa, lambda, F234A L235A)
heavy 1: not shown
light 1: not shown
heavy 2: B1 heavy 2
light 2: B1 light 2
notes: IgG4 PAA; PSMA arm chains first, then CD3 arm (F405L, R409K); also called PSMB120 x CD3B219

Target: T1, Cynomolgous monkey PSMA, full length
Assay: FACS, whole cell binding, cyno PSMA HEK
Protocol: (§1) PSMA×CD3 bispecific antibodies were tested for binding to PSMA positive cell lines LNCAP, human PSMA-HEK, Chimpanzee-PSMA-HEK and Cynomolgous monkey PSMA-HEK. To assess the binding capabilities of the PSMA bispecific antibodies, the cell-binding assay was utilized (described previously). Briefly, PSMA expressing tumor cells are bound by bispecific antibodies at known concentrations and the bound antibody is detected by an anti-human kappa light chain PE conjugated detection reagent (Invitrogen). The Mean Fluorescents Intensity (MFI) is the measure of bound bispecific antibody. The MFI is converted to a relative EC₅₀. EC₅₀ is a commonly used dose-response curve, where the half maximal effective concentration or the EC₅₀ point is defined as the inflection point of the curve. EC₅₀ s were determined by measuring cell bound bispecific and known concentrations. […] The dose response curves were then diluted down to that of background or no bispecific binding. The inflection point of this curve reflects the EC₅₀ point. The calculated EC₅₀ is determined by taking the ug/ml amount of bispecific antibody at the EC₅₀ point and converting it to a molarity value based on the MW of the bispecific antibody. Bispecific antibodies were normalized for protein concentration and then incubated with the same number of cells expressing either human or cyno PSMA. The MFI at each concentration was collected by flow cytometry and plotted as a function of concentration. Data was transformed via log 10 and then plotted. Nonlinear regression of binding curves was done to determine EC₅₀ s. These relative values were used for ranking PSMA binding to target cells.

Row | Binder | EC50
1 | B1 | 5.37 mg/L
2 | B2 | 0.688 mg/L
3 | B3 | 2 mg/L

Target: T2, chimpanzee PSMA, full length
Assay: FACS, whole cell binding, chimp PSMA HEK
Protocol: as §1

Row | Binder | EC50
4 | B1 | 3.29 mg/L
5 | B2 | 1.01 mg/L
6 | B3 | 3.33 mg/L

Target: T3, human PSMA (prostate specific membrane antigen), full length (human, UniProt Q04609 1-750)
T3 construct: On LNCaP or C4-2B cells (endogenous) or transduced HEK293F cells; also called FOLH1_HUMAN; hPSMA
Assay: FACS, whole cell binding, LNCaP; calculated EC50
Protocol: as §1

Row | Binder | EC50
7 | B1 | 0.0085 µM
8 | B2 | 0.0081 µM
9 | B3 | 0.864 µM

Target: T2, chimpanzee PSMA, full length
Assay: FACS, whole cell binding, chimp PSMA HEK; calculated EC50
Protocol: as §1

Row | Binder | EC50
10 | B1 | 0.0232 µM
11 | B2 | 0.00708 µM
12 | B3 | 0.0234 µM
